Assay results as given in FireProtDB (doi:10.1021/bi00458a027).
“And” between values parts separate entries of the source, which are not always exact repeats. Identical values can stand only once.

B1: Tryptophan synthase alpha chain, P0A877 (parent)
chain: MERYESLFAQLKERKEGAFVPFVTLGDPGIEQSLKIIDTLIEAGADALELGIPFSDPLADGPTIQNATLRAFAAGVTPAQCFEMLALIRQKHPTIPIGLLMYANLVFNKGIDEFYAQCEKVGVDSVLVADVPVEESAPFRQAALRHNVAPIFICPPNADDDLLRQIASYGRGYTYLLSRAGVTGAENRAALPLNHLVAKLKEYNAAPPLQGFGISAPDQVKAAIDAGAAGAISGSAIVKIIEQHINEPEKMLAALKVFVQPMKAATRS

Variants of: B1
Settings: Escherichia coli (strain K12), pH 7.8, Urea, CD, Potassium phosphate 10 mM, structure 1WQ5, whole UniProt chain shown

Variant	denaturant m value (4 °C)	denaturant midpoint (higher = more stable) (4 °C)	ddG of mutation (higher = less stable) (25 °C)	denaturant m value (25 °C)	denaturant midpoint (higher = more stable) (25 °C)	unfolding free energy (25 °C)
MERYESLFAQLKERKEGAFVPFVTLGDPGIEQSLKIIDTLIEAGADALELGIPFSDPLADGPTIQNATLRAFAAGVTPAQCFEMLALIRQKHPTIPIGLLMYANLVFNKGIDEFYAQCEKVGVDSVLVADVPVEESAPFRQAALRHNVAPIFICPPNADDDLLRQIASYGRGYTYLLSRAGVTGAENRAALPLNHLVAKLKEYNAAPPLQRFGISAPDQVKAAIDAGAAGAISGSAIVKIIEQHINEPEKMLAALKVFVQPMKAATRS [G211R]	1.6 kcal/mol/M and 2.2 kcal/mol/M	1.4 M and 3.28 M	–	–	–	–
MERYESLFAQLKERKEGAFVPFVTLGDPGIEQSLKIIDTLIEAGADALELGIPFSDPLADGPTIQNATLRAFAAGVTPAQCFEMLALIRQKHPTIPIGLLMYANLVFNKGIDEFYAQCEKVGVDSVLVADVPVEESAPFRQAALRHNVAPIFICPPNADDDLLRQIASYGRGYTYLLSRAGVTGAENRAALPLNHLVAKLKEYNAAPPLQDFGISAPDQVKAAIDAGAAGAISGSAIVKIIEQHINEPEKMLAALKVFVQPMKAATRS [G211D]	–	–	0.3 kcal/mol and 0.8 kcal/mol	2 kcal/mol/M and 1.2 kcal/mol/M	2.7 M and 3.61 M	5.4 kcal/mol and 4.2 kcal/mol
MERYESLFAQLKERKEGAFVPFVTLGDPGIEQSLKIIDTLIEAGADALELGIPFSDPLADGPTIQNATLRAFAAGVTPAQCFEMLALIRQKHPTIPIGLLMYANLVFNKGIDEFYAQCEKVGVDSVLVADVPVEESAPFRQAALRHNVAPIFICPPNADDDLLRQIASYGRGYTYLLSRAGVTGAENRAALPLNHLVAKLKEYNAAPPLQWFGISAPDQVKAAIDAGAAGAISGSAIVKIIEQHINEPEKMLAALKVFVQPMKAATRS [G211W]	–	–	1.6 kcal/mol and 1.1 kcal/mol	1.8 kcal/mol/M and 1.1 kcal/mol/M	2.25 M and 3.62 M	4.1 kcal/mol and 3.9 kcal/mol
MERYESLFAQLKERKEGAFVPFVTLGDPGIEQSLKIIDTLIEAGADALELGIPFSDPLADGPTIQNATLRAFAAGVTPAQCFEMLALIRQKHPTIPIGLLMYANLVFNKGIDEFYAQCEKVGVDSVLVADVPVEESAPFRQAALRHNVAPIFICPPNADDDLLRQIASYGRGYTYLLSRAGVTGAENRAALPLNHLVAKLKEYNAAPPLQSFGISAPDQVKAAIDAGAAGAISGSAIVKIIEQHINEPEKMLAALKVFVQPMKAATRS [G211S]	–	–	-0.2 kcal/mol	2.4 kcal/mol/M and 1.3 kcal/mol/M	2.46 M and 3.97 M	5.9 kcal/mol and 5.2 kcal/mol
MERYESLFAQLKERKEGAFVPFVTLGDPGIEQSLKIIDTLIEAGADALELGIPFSDPLADGPTIQNATLRAFAAGVTPAQCFEMLALIRQKHPTIPIGLLMYANLVFNKGIDEFYAQCEKVGVDSVLVADVPVEESAPFRQAALRHNVAPIFICPPNADDDLLRQIASYGRGYTYLLSRAGVTGAENRAALPLNHLVAKLKEYNAAPPLQVFGISAPDQVKAAIDAGAAGAISGSAIVKIIEQHINEPEKMLAALKVFVQPMKAATRS [G211V]	–	–	–	1.9 kcal/mol/M and 1.6 kcal/mol/M	2.78 M and 4.3 M	5.4 kcal/mol and 6.9 kcal/mol
MERYESLFAQLKERKEGAFVPFVTLGDPGIEQSLKIIDTLIEAGADALELGIPFSDPLADGPTIQNATLRAFAAGVTPAQCFEMLALIRQKHPTIPIGLLMYANLVFNKGIDEFYAQCEKVGVDSVLVADVPVEESAPFRQAALRHNVAPIFICPPNADDDLLRQIASYGRGYTYLLSRAGVTGAENRAALPLNHLVAKLKEYNAAPPLQEFGISAPDQVKAAIDAGAAGAISGSAIVKIIEQHINEPEKMLAALKVFVQPMKAATRS [G211E]	–	–	–	3 kcal/mol/M and 1.5 kcal/mol/M	2.73 M and 3.72 M	8.1 kcal/mol and 5.5 kcal/mol
